Reference: patent US20240049668A1 (VILMORIN AND CIE, published 2024)
Read-outs that look alike come from different tables or passages of the source.

T1: Movement Protein of ToBRFV (Tomato Brown Rugose Fruit Virus …, UniProt A0A0S2SZW1 1-266)
T1 sequence: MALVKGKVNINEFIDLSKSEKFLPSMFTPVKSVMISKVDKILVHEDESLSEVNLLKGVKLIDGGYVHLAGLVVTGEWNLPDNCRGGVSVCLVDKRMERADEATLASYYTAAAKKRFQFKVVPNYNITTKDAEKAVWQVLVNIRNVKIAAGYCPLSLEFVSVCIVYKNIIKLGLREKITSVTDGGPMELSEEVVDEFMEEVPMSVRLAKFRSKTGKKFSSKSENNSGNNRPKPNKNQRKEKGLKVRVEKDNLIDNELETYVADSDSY


Columns and labels:
[1] = target: T1, Movement Protein of ToBRFV; experiment: cell-based or functional assay
[2] = target: T1, Movement Protein of ToBRFV; experiment: cell-based or functional assay; remark: listed apart in the source

Binder	HR to MP Rugose [1] [HR scale 0-4]	HR to MP Rugose [2] [HR scale 0-4]
TM-2-2 variant L12_A (769 A) (receptor) MAEILLTSVINKSVEIAGNLLIQEGKRLYWLKEDIDWLQREMRHIRSYVDNAKAKEAGGDSRVKNLLKDIQELAGDVEDLLDDFLPKIQQSNKFNYCLKRSSFADEFAMEIEKIKRRVVDIDRIRKTYNIIDTDNNNDDCVLLDRRRLFLHADETEIIGLDDDFNMLQAKLLNQDLHYGVVSIVGMPGLGKTTLAKKLYRLIRDQFECSGLVYVSQQPRASEILLDIAKQIGLTEQKMKENLEDNLRSLLKIKRYVILLDDIWDVEIWDDLKLVLPECDSKVGSRMIITSRNSNVGRYIGGESSLHALQPLESEKSFELFTKKIFNFDDNNSWANASPDLVNIGRNIVGRCGGIPLAIVVTAGMLRARERTEHAWNRVLESMGHKVQDGCAKVLALSYNDLPIASRPCFLYFGLYPEDHEIRAFDLINMWIAEKFIVVNSGNRREAEDLAEDVLNDLVSRNLIQLAKRTYNGRISSCRIHDLLHSLCVDLAKESNFFHTAHDAFGDPGNVARLRRITFYSDNVMIEFFRSNPKLEKLRVLFCFAKDPSIFSHMAYFDFKLLHTLVVVMSQSFQAYVTIPSKFGNMTCLRYLRLEGNICGKLPNSIVKLTRLETIDIDRRSLIQPPSGVWESKHLRHLCYRDYGQACNSCFSISSFYPNIYSLHPNNLQTLMWIPDKFFEPRLLHRLINLRKLGILGVSNSTVKMLSIFSPVLKALEVLKLSFSSDPSEQIKLSSYPHIAKLHLNVNRTMALNSQSFPPNLIKLTLAYFAVDRYILAVLKTFPKLRKLKMFICKYNEEKMDLSGEANGYSFPQLEVLHIHSPNGLSEVTCTDDVSMPKLKKLLLTGFHCRISLSERLKKLSK	0	–
TM-2-2 variant pJL 511_1 (767 S, 769 A, 848 R) (receptor) MAEILLTSVINKSVEIAGNLLIQEGKRLYWLKEDIDWLQREMRHIRSYVDNAKAKEAGGDSRVKNLLKDIQELAGDVEDLLDDFLPKIQQSNKFNYCLKRSSFADEFAMEIEKIKRRVVDIDRIRKTYNIIDTDNNNDDCVLLDRRRLFLHADETEIIGLDDDFNMLQAKLLNQDLHYGVVSIVGMPGLGKTTLAKKLYRLIRDQFECSGLVYVSQQPRASEILLDIAKQIGLTEQKMKENLEDNLRSLLKIKRYVILLDDIWDVEIWDDLKLVLPECDSKVGSRMIITSRNSNVGRYIGGESSLHALQPLESEKSFELFTKKIFNFDDNNSWANASPDLVNIGRNIVGRCGGIPLAIVVTAGMLRARERTEHAWNRVLESMGHKVQDGCAKVLALSYNDLPIASRPCFLYFGLYPEDHEIRAFDLINMWIAEKFIVVNSGNRREAEDLAEDVLNDLVSRNLIQLAKRTYNGRISSCRIHDLLHSLCVDLAKESNFFHTAHDAFGDPGNVARLRRITFYSDNVMIEFFRSNPKLEKLRVLFCFAKDPSIFSHMAYFDFKLLHTLVVVMSQSFQAYVTIPSKFGNMTCLRYLRLEGNICGKLPNSIVKLTRLETIDIDRRSLIQPPSGVWESKHLRHLCYRDYGQACNSCFSISSFYPNIYSLHPNNLQTLMWIPDKFFEPRLLHRLINLRKLGILGVSNSTVKMLSIFSPVLKALEVLKLSFSSDPSEQIKLSSYPHIAKLHLNVNRTMALNSQSFPPNLIKLTLASFAVDRYILAVLKTFPKLRKLKMFICKYNEEKMDLSGEANGYSFPQLEVLHIHSPNGLSEVTCTDDVSMPKLKKLLLTGFHRRISLSERLKKLSK	–	0
TM-2-2 variant pJL 511_2 (767 S, 848 R) (receptor) MAEILLTSVINKSVEIAGNLLIQEGKRLYWLKEDIDWLQREMRHIRSYVDNAKAKEAGGDSRVKNLLKDIQELAGDVEDLLDDFLPKIQQSNKFNYCLKRSSFADEFAMEIEKIKRRVVDIDRIRKTYNIIDTDNNNDDCVLLDRRRLFLHADETEIIGLDDDFNMLQAKLLNQDLHYGVVSIVGMPGLGKTTLAKKLYRLIRDQFECSGLVYVSQQPRASEILLDIAKQIGLTEQKMKENLEDNLRSLLKIKRYVILLDDIWDVEIWDDLKLVLPECDSKVGSRMIITSRNSNVGRYIGGESSLHALQPLESEKSFELFTKKIFNFDDNNSWANASPDLVNIGRNIVGRCGGIPLAIVVTAGMLRARERTEHAWNRVLESMGHKVQDGCAKVLALSYNDLPIASRPCFLYFGLYPEDHEIRAFDLINMWIAEKFIVVNSGNRREAEDLAEDVLNDLVSRNLIQLAKRTYNGRISSCRIHDLLHSLCVDLAKESNFFHTAHDAFGDPGNVARLRRITFYSDNVMIEFFRSNPKLEKLRVLFCFAKDPSIFSHMAYFDFKLLHTLVVVMSQSFQAYVTIPSKFGNMTCLRYLRLEGNICGKLPNSIVKLTRLETIDIDRRSLIQPPSGVWESKHLRHLCYRDYGQACNSCFSISSFYPNIYSLHPNNLQTLMWIPDKFFEPRLLHRLINLRKLGILGVSNSTVKMLSIFSPVLKALEVLKLSFSSDPSEQIKLSSYPHIAKLHLNVNRTMALNSQSFPPNLIKLTLASFSVDRYILAVLKTFPKLRKLKMFICKYNEEKMDLSGEANGYSFPQLEVLHIHSPNGLSEVTCTDDVSMPKLKKLLLTGFHRRISLSERLKKLSK	–	0
TM-2-2 variant pJL 511_3 (767 Y, 769 A, 848 R) (receptor) MAEILLTSVINKSVEIAGNLLIQEGKRLYWLKEDIDWLQREMRHIRSYVDNAKAKEAGGDSRVKNLLKDIQELAGDVEDLLDDFLPKIQQSNKFNYCLKRSSFADEFAMEIEKIKRRVVDIDRIRKTYNIIDTDNNNDDCVLLDRRRLFLHADETEIIGLDDDFNMLQAKLLNQDLHYGVVSIVGMPGLGKTTLAKKLYRLIRDQFECSGLVYVSQQPRASEILLDIAKQIGLTEQKMKENLEDNLRSLLKIKRYVILLDDIWDVEIWDDLKLVLPECDSKVGSRMIITSRNSNVGRYIGGESSLHALQPLESEKSFELFTKKIFNFDDNNSWANASPDLVNIGRNIVGRCGGIPLAIVVTAGMLRARERTEHAWNRVLESMGHKVQDGCAKVLALSYNDLPIASRPCFLYFGLYPEDHEIRAFDLINMWIAEKFIVVNSGNRREAEDLAEDVLNDLVSRNLIQLAKRTYNGRISSCRIHDLLHSLCVDLAKESNFFHTAHDAFGDPGNVARLRRITFYSDNVMIEFFRSNPKLEKLRVLFCFAKDPSIFSHMAYFDFKLLHTLVVVMSQSFQAYVTIPSKFGNMTCLRYLRLEGNICGKLPNSIVKLTRLETIDIDRRSLIQPPSGVWESKHLRHLCYRDYGQACNSCFSISSFYPNIYSLHPNNLQTLMWIPDKFFEPRLLHRLINLRKLGILGVSNSTVKMLSIFSPVLKALEVLKLSFSSDPSEQIKLSSYPHIAKLHLNVNRTMALNSQSFPPNLIKLTLAYFAVDRYILAVLKTFPKLRKLKMFICKYNEEKMDLSGEANGYSFPQLEVLHIHSPNGLSEVTCTDDVSMPKLKKLLLTGFHRRISLSERLKKLSK	–	4
TM-2-2 variant pJL 511_5 (767 Y wt, 769 S wt, 848 R) (receptor) MAEILLTSVINKSVEIAGNLLIQEGKRLYWLKEDIDWLQREMRHIRSYVDNAKAKEAGGDSRVKNLLKDIQELAGDVEDLLDDFLPKIQQSNKFNYCLKRSSFADEFAMEIEKIKRRVVDIDRIRKTYNIIDTDNNNDDCVLLDRRRLFLHADETEIIGLDDDFNMLQAKLLNQDLHYGVVSIVGMPGLGKTTLAKKLYRLIRDQFECSGLVYVSQQPRASEILLDIAKQIGLTEQKMKENLEDNLRSLLKIKRYVILLDDIWDVEIWDDLKLVLPECDSKVGSRMIITSRNSNVGRYIGGESSLHALQPLESEKSFELFTKKIFNFDDNNSWANASPDLVNIGRNIVGRCGGIPLAIVVTAGMLRARERTEHAWNRVLESMGHKVQDGCAKVLALSYNDLPIASRPCFLYFGLYPEDHEIRAFDLINMWIAEKFIVVNSGNRREAEDLAEDVLNDLVSRNLIQLAKRTYNGRISSCRIHDLLHSLCVDLAKESNFFHTAHDAFGDPGNVARLRRITFYSDNVMIEFFRSNPKLEKLRVLFCFAKDPSIFSHMAYFDFKLLHTLVVVMSQSFQAYVTIPSKFGNMTCLRYLRLEGNICGKLPNSIVKLTRLETIDIDRRSLIQPPSGVWESKHLRHLCYRDYGQACNSCFSISSFYPNIYSLHPNNLQTLMWIPDKFFEPRLLHRLINLRKLGILGVSNSTVKMLSIFSPVLKALEVLKLSFSSDPSEQIKLSSYPHIAKLHLNVNRTMALNSQSFPPNLIKLTLAYFSVDRYILAVLKTFPKLRKLKMFICKYNEEKMDLSGEANGYSFPQLEVLHIHSPNGLSEVTCTDDVSMPKLKKLLLTGFHRRISLSERLKKLSK	–	4
